Laboratory results reported in article PMC6650433, “Evolution of metazoan oxygen-sensing involved a conserved divergence of VHL affinity for HIF1α and HIF2α” (Nature Communications, 2019).
Substitutions are numbered along the chain they refer to. Names and notes keep the numbering of the source. [ ]: non-standard residue; d: D form. The star is where a group is joined. Biotin = O=C1N[C@H]2[C@H](CS[C@H]2CCCCC(=O)*)N1; Hyp = O=C(O)[C@@H]1C[C@@H](O)CN1

Assays:
[1] = test system: HA-VHL30; experiment: In vitro pVHL-HIFα binding (pulldown) assay, VHL WT; design: species or system human; settings: 1.2 μg biotinylated peptide on streptavidin agarose beads, IVTT HA-VHL30, EBC buffer, two hours at 4 °C, anti-HA immunoblot, qualitative
Procedure: The in vitro pVHL-HIFα binding assay was performed as previously described. HA-VHL30 was expressed in an IVTT rabbit reticulocyte lysate system (Promega, Cat. No. L1170) and incubated with 1.2 μg of biotinylated HIFαOH peptide immobilized on streptavidin agarose beads in 500 μL of EBC buffer (50 mM Tris-HCl pH 8.0, 120 mM NaCl, 0.5% (v/v) NP-40) for two hours at 4 °C. To perform a competition binding assay, 1.8 μg of biotinylated HIFαOH peptide immobilized on streptavidin agarose beads competed with 1 μg of acetylated HIFαOH peptide. Following incubation, beads were washed 4x with NETN buffer (20 mM Tris-HCl pH 8.0, 100 mM NaCl, 1 mM EDTA, 0.5% (v/v) NP-40). Biotinylated peptide was pulled down via streptavidin agarose beads and protein was eluted by boiling beads in sample buffer. Protein levels of HA-VHL30 were determined by immunoblotting.

[2] = molecular target: T1, VHL-elongin B-elongin C (VBC) complex (Homo sapiens, UniProt P40337+Q15369+Q15370); experiment: Biolayer interferometry, VBC WT binding to immobilized HIFα peptide; settings: VHL/HIFα binding experiments, Fig. 2b (pulldown) and Fig. 2d (BLI), in words
T1 construct: made in house
Procedure: The binding affinities of VBC to hydroxylated HIFα peptide was measured by biolayer interferometry using the BLItz system (Pall ForteBio). A 50 μg/mL solution of biotinylated HIFα peptide was prepared in kinetics buffer (20 mM HEPES pH 7.4, 200 mM NaCl, 1 mM DTT, 0.02% (v/v) Tween-20, and 0.5% (w/v) BSA) and immobilized onto streptavidin (SA)-coated biolayer interferometry (BLI) biosensors (Pall ForteBio, Cat. No. 18–5019) over 120 s. Multiple concentrations of purified VBC complex were diluted in kinetics buffer and allowed to associate with immobilized peptide over 120 s. Subsequently, the SA-BLI probe was immersed into kinetics buffer for 120 s to allow for dissociation. Both protein and buffer were chilled on ice immediately before use. The data were analyzed, step corrected, reference corrected, and fit to a global 1:1 binding model. Kd, ka, and kd were calculated using the BLItz Pro software. All measurements were performed in triplicate with independently purified recombinant protein.

[3] = molecular target: VHL-elongin B-elongin C (VBC) complex, wild type, P40337;Q15370;Q15369; experiment: biolayer interferometry (BLI); settings: chain shown with the change;, read off a plot
[4] = test system: VHL F91Y; experiment: In vitro hydroxylation and co-immunoprecipitation of HIFα ODD with VHL F91Y; type: binding, human; settings: IVTT 3xFLAG-HIF1α ODD hydroxylated with HIS6-PHD2, anti-FLAG IP, anti-HA immunoblot, qualitative
Procedure: (§1) 3xFLAG-HIFα ODD was expressed via the rabbit reticulocyte lysate system. HIFα ODD was incubated with 15 μg/μL HIS6-PHD2 (181–426) in 200 μL of 40 mM HEPES pH 7.4, 80 mM KCl, 5 mM a-ketoglutarate, 2 mM ascorbic acid, 100 μM FeCl2 tetrahydrate solution at 30 °C for 1 h. Following hydroxylation, 3xFLAG-HIFα was incubated with IVTT VHL30 in 500 μL of wash buffer (40 mM HEPES pH 7.4, 80 mM KCl, 0.05% (v/v) Tween-20, 250 μM EDTA, 1 mM DTT) supplemented with protease inhibitors for 2 h at 4 °C. Following binding, 3xFLAG-HIFα ODD was immunoprecipitated with anti-FLAG antibody immobilized on protein A beads. Protein was eluted by boiling beads in sample buffer. Protein levels of HA-VHL30 were determined by immunoblotting.

[5] = test system: HA-VHL30; experiment: In vitro hydroxylation and co-immunoprecipitation of HIFα ODD with VHL WT; type: binding, human; settings: IVTT 3xFLAG-HIFα ODD hydroxylated with HIS6-PHD2 (181–426) for 1 h, anti-FLAG IP, anti-HA immunoblot, compared with the WT ODD, qualitative
Procedure: as §1

T1 sequence (P40337 54-213 limits assumed): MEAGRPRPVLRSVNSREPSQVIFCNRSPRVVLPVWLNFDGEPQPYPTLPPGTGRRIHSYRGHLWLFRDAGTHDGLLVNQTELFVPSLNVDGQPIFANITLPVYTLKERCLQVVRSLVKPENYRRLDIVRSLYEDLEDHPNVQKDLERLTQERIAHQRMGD
T1 sequence (Q15370 whole entry partner): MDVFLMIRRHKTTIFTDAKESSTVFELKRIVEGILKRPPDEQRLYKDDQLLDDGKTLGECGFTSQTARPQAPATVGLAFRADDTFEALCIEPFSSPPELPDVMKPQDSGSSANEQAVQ
T1 sequence (Q15369 17-112 partner limits assumed): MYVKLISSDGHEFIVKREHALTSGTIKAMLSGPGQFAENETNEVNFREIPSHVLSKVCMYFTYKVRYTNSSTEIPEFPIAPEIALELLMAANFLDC

“Bio-HIF1αOH(M561A): hydroxylated HIF1α peptide, Met561 substituted with alanine (Biotin-DLDLEALA[Hyp]YIPMDDDFQ-NH2; SMILES CC[C@H](C)[C@H](NC(=O)[C@H](Cc1ccc(O)cc1)NC(=O)[C@@H]1C[C@@H](O)CN1C(=O)[C@H](C)NC(=O)[C@H](CC(C)C)NC(=O)[C@H](C)NC(=O)[C@H](CCC(=O)O)NC(=O)[C@H](CC(C)C)NC(=O)[C@H](CC(=O)O)NC(=O)[C@H](CC(C)C)NC(=O)[C@H](CC(=O)O)NC(=O)CCCC[C@@H]1SC[C@@H]2NC(=O)N[C@@H]21)C(=O)N1CCC[C@H]1C(=O)N[C@@H](CCSC)C(=O)N[C@@H](CC(=O)O)C(=O)N[C@@H](CC(=O)O)C(=O)N[C@@H](CC(=O)O)C(=O)N[C@@H](Cc1ccccc1)C(=O)N[C@@H](CCC(N)=O)C(N)=O)” was tested, and the “levels of HA-VHL pulled down by immobilized biotinylated HIFαOH peptide (affinity for VHL)” value (from here on “levels of HA-VHL pulled down”) [1] was “decreased affinity for pVHL”.

“HIF1αOH(D570delinsGE): hydroxylated HIF1α peptide with insertion of Glyn+6 to mimic HIF2α (Biotin-DLDLEMLA[Hyp]YIPMDGDDFQ-NH2; SMILES CC[C@H](C)[C@H](NC(=O)[C@H](Cc1ccc(O)cc1)NC(=O)[C@@H]1C[C@@H](O)CN1C(=O)[C@H](C)NC(=O)[C@H](CC(C)C)NC(=O)[C@H](CCSC)NC(=O)[C@H](CCC(=O)O)NC(=O)[C@H](CC(C)C)NC(=O)[C@H](CC(=O)O)NC(=O)[C@H](CC(C)C)NC(=O)[C@H](CC(=O)O)NC(=O)CCCC[C@@H]1SC[C@@H]2NC(=O)N[C@@H]21)C(=O)N1CCC[C@H]1C(=O)N[C@@H](CCSC)C(=O)N[C@@H](CC(=O)O)C(=O)NCC(=O)N[C@@H](CC(=O)O)C(=O)N[C@@H](CC(=O)O)C(=O)N[C@@H](Cc1ccccc1)C(=O)N[C@@H](CCC(N)=O)C(N)=O)” was tested, and the VHL/HIFα complex stability [2] was “does not overtly modulate complex stability”.

For “HIF2α T528M: hydroxylated HIF2α peptide with T528M substitution (Biotin-ELDLEMLA[Hyp]YIPMDGEDFQ-NH2; SMILES CC[C@H](C)[C@H](NC(=O)[C@H](Cc1ccc(O)cc1)NC(=O)[C@@H]1C[C@@H](O)CN1C(=O)[C@H](C)NC(=O)[C@H](CC(C)C)NC(=O)[C@H](CCSC)NC(=O)[C@H](CCC(=O)O)NC(=O)[C@H](CC(C)C)NC(=O)[C@H](CC(=O)O)NC(=O)[C@H](CC(C)C)NC(=O)[C@H](CCC(=O)O)NC(=O)CCCC[C@@H]1SC[C@@H]2NC(=O)N[C@@H]21)C(=O)N1CCC[C@H]1C(=O)N[C@@H](CCSC)C(=O)N[C@@H](CC(=O)O)C(=O)NCC(=O)N[C@@H](CCC(=O)O)C(=O)N[C@@H](CC(=O)O)C(=O)N[C@@H](Cc1ccccc1)C(=O)N[C@@H](CCC(N)=O)C(N)=O)”, the “levels of HA-VHL pulled down” value [1] was “increased affinity for VHL”.

With “HIF2αOH(∆G537): hydroxylated HIF2α peptide with deletion of G537 (Biotin-ELDLETLA[Hyp]YIPMDEDFQ-NH2; SMILES CC[C@H](C)[C@H](NC(=O)[C@H](Cc1ccc(O)cc1)NC(=O)[C@@H]1C[C@@H](O)CN1C(=O)[C@H](C)NC(=O)[C@H](CC(C)C)NC(=O)[C@@H](NC(=O)[C@H](CCC(=O)O)NC(=O)[C@H](CC(C)C)NC(=O)[C@H](CC(=O)O)NC(=O)[C@H](CC(C)C)NC(=O)[C@H](CCC(=O)O)NC(=O)CCCC[C@@H]1SC[C@@H]2NC(=O)N[C@@H]21)[C@@H](C)O)C(=O)N1CCC[C@H]1C(=O)N[C@@H](CCSC)C(=O)N[C@@H](CC(=O)O)C(=O)N[C@@H](CCC(=O)O)C(=O)N[C@@H](CC(=O)O)C(=O)N[C@@H](Cc1ccccc1)C(=O)N[C@@H](CCC(N)=O)C(N)=O)” the “levels of HA-VHL pulled down” value [1] was “minor decrease in affinity for VHL”.

“MetO2: hydroxylated HIF1α peptide, Met561 completely oxidized to methionine sulfone (MetO2)” was tested, and the “levels of HA-VHL pulled down” value [1] was “further decrease in VHL affinity”.

In the case of “NLE-substituted HIF1α: hydroxylated HIF1α peptide, Met561 substituted with norleucine”, the “levels of HA-VHL pulled down” value [1] is reported as “did not affect the affinity”.

With ELDLETLAPYIPMDEDFQ [hydroxylated HIF2α peptide (523–541), biotinylated G537del] the koff ([3]; parent: est. 0.0075 s-1) was 0.011 s⁻¹ and the koff ([3]; parent: est. 0.0078) was 0.011 s⁻¹.

B1: HIF1α ODD M561T: IVTT 3xFLAG-HIF1α ODD (387–581) with M561T substitution (protein)
chain: FDKLKKEPDALTLLAPAAGDTIISLDFGSNDTETDDQQLEEVPLYNDVMLPSPNEKLQNINLAMSPLPTAETPKPLRSSADPALNQEVALKLEPNPESLELSFTMPQIQDQTPSPSDGSTRQSSPEPNSPSEYCFYVDSDMVNEFKLELVEKLFAEDTEAKNPFSTQDTDLDLETLAPYIPMDDDFQLRSFDQLS
modifications: hydroxylated in vitro by HIS6-PHD2 (181–426) for one hour before the binding; left off: 3xFLAG, end not stated, kept
notes: IVTT 3xFLAG-HIF1α ODD (387–581) with M561T substitution
For B1, the “HIFα ODD bound by VHL F91Y, compared with VHL WT” value [4] was “bound less” and the “affinity of HIFα ODD protein for VHL (HA-VHL co-immunoprecipitated)” value [5] was “decreased affinity”.

B2: HIF1αODD WT: IVTT 3xFLAG-tagged HIF1α oxygen-dependent degradation domain (387–581), wild type (protein)
chain: B1 chain with T175M
modifications: hydroxylated in vitro by HIS6-PHD2 (181–426) for one hour before the binding; left off: 3xFLAG, end not stated, kept
notes: IVTT 3xFLAG-tagged HIF1α oxygen-dependent degradation domain (387–581), wild type
For B2, the “HIFα ODD bound by VHL F91Y, compared with VHL WT” value [4] was “bound less”.

B3: HIF2α ODD T528M: IVTT 3xFLAG-HIF2α(390–554) ODD protein with T528M substitution (protein, UniProt Q99814 390-554, looked up, fragment T528M)
chain: FTKLKEEPEELAQLAPTPGDAIISLDFGNQNFEESSAYGKAILPPSQPWATELRSHSTQSEAGSLPAFTVPQAAAPGSTTPSATSSSSSCSTPNSPEDYYTSLDNDLKIEVIEKLFAMDTEAKDQCSTQTDFNELDLEMLAPYIPMDGEDFQLSPICPEERLLAE
modifications: ODD 3xFLAG tag
notes: IVTT 3xFLAG-HIF2α(390–554) ODD protein with T528M substitution
In the case of B3, the “affinity of HIFα ODD protein for VHL (HA-VHL co-immunoprecipitated)” value [5] is reported as “increased the affinity”.
